Measurements published in US20200222518A1 (BOARD OF SUPERVISORS OF LOUISIANA STATE UNIVERSITY AND …, published 2020).

B1: 2B10C1 (antibody, V domains shown)
VH: QVQLQQPGAEVVRPGASVKVSCKASGYTVSSYWMSWVKQRPEQGLEWIGRIDPYDSETHYNQKFKDKAILTVDKSSSTAYMQLSSLTSEDSAVYYCARTAASFDYWGQGTTLTVSS
VL: DVVMTQTPLSLPVSLGDQASISCRSSQSLVHSNGNSYLHWYLQKPGQSPKLLIYKVSNRFSGVPDRFSGSGSGTDFTLNISRVEAEDLGVYFCSQSTHVPFTFGSGTKLEIK
notes: Mouse hybridoma mAb, IgG1; The entries are 135 AA and 131 AA and their DNA starts with ATG, so they may include the leader peptide; The limits are printed only as drawings and no residues were cut; also called 2810C1
B2: 2D5F7 (antibody, V domains shown)
VH: QVQLQQSAAELARPGASVKMSCKASGYTFSSYTMHWVKQRPGQGLEWIGYINPSSGYTDYNQKFKDKTTLTADKSSSTAYMQLSSLTSEDSAVYYCARLYDNYDYYAMDYWGQGTSVTVSS
VL: DIVMSQSPSSLAVSAGEKVTMSCKSSQSLLNSRIRKNYLAWYQQKPGQSPKLLIYWASTRESGVPDRFTGSGSGTDFTLTISSVQADDLAVYYCKQSYNLLTFGAGTKLELK
notes: Mouse hybridoma mAb, IgG2b; The entries are 140 AA and 132 AA and their DNA starts with ATG, so they may include the leader peptide; The limits are printed only as drawings and no residues were cut

What was measured:
Met6 peptide = target: T1, Met6 peptide (Candida albicans); assay: specificity listed in table; hybridomas screened by anti-peptide ELISA
T1 construct: Synthetic 14-mer (GenScript) from the N-terminus of the C. albicans Met6 cell wall protein
T1 peptide: PRIGGQRELKKITEC

Fba peptide = target: T2, Fba peptide (Candida albicans); assay: as above
T2 construct: Synthetic 14-mer (GenScript) from the N-terminus of C. albicans fructose-bisphosphate aldolase
T2 peptide: YGKDVKDLFDYAQEC

Binder	binding result (Met6 peptide)	binding result (Fba peptide)
B1	binds	–
B2	–	binds
